Results on one molecule are retold here after patent publication US20120108796A1 (Bayer, published 2012).

The target in the assay is T1, human TFPI (tissue factor pathway inhibitor) (human, UniProt P10646 29-304, limits assumed).
T1 construct: bought protein, coated on ELISA plates or amine-coupled to a CM5 chip; also called hTFPI
T1 sequence (looked up): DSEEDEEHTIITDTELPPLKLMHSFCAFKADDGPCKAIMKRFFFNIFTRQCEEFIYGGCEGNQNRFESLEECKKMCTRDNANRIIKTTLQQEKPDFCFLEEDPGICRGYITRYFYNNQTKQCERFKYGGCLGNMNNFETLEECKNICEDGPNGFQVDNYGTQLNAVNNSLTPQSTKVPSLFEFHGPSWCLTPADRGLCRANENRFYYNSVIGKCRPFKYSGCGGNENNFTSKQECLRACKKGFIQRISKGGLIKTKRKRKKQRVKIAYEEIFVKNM
Description: competitive ELISA. On the procedure:
Briefly, MTP plates (either Mesoscale Discovery, L21XA-4 or Nunc maxisorp black, 460518) were coated with 0.04-2 lug/m1 either human or mouse TFPI diluted in phosphate buffered saline (PBS) or in coating buffer (Candor Bioscience GmbH, 121500), respectively and incubated over night at 4° C. After washing, plates were blocked with 3% bovine serum albumin (Sigma, A4503) in PBST for 1 hour at room temperature and the washing step was repeated. For binding of the antibodies 10-25 µl of culturing supernatants normalized to their respective antibody expression level (if not otherwise indicated) were added to the plates for 1 hour at RT followed by washing with PBST. Bound wild-type and variants were then either detected by an epitope tag specific antibody or a competition step was included. For competition, 50-300 nM competitor or free antigen was added and incubated for 20 minutes to 24 hours at room temperature. […] For signal detection in maxisorp plates 10 [tM amplex red substrate (Invitrogen, A12222) was added and incubated for 10 to 30 minutes at room temperature in the dark followed by fluorescence measurement. For the detection in MSD plates MSD read buffer T was diluted to 2× in H2O (Mesoscale Discovery, R92TC-1), added to the plates and the electrochemiluminiscence signal was detected at 620 nm using the Mesoscale Discovery Sector Imager 6000. […]
(An ELISA detects its analyte on a solid surface through an enzyme-linked reagent.)

B1: 4B7 HC H107M LC F31I (Fab, V domains shown)
VH: QVQLQQSGPGLVKPSQTLSLTCAISGDSVSSNSAAWSWIRQSPGRGLEWLGIIYKRSKWYNDYAVSVKSRITINPDTSKNQFSLQLNSVTPEDTAVYYCARWHSDKMWGFDYWGQGTLVTVSS
VL: DIVMTQSPLSLPVTPGEPASISCRSSQSLVISDGNTYLNWYLQKPGQSPQLLIYKGSNRASGVPDRFSGSGSGTDFTLKISRVEAEDVGVYYCQQYDSYPLTFGQGTKVEIKR
notes: Fab; tags as m115; also called HC H107M LC F311 (so in the source)
For B1, the variant/wild-type was 3.7 ratio.
